Data as given in publication PMC9133142 (Cell chemical biology, 2022).

B1: mAb ZV-67 (antibody, V domains shown)
VH: QAQLQQSGTGLARPGASVKLSCKASGYTFTSYGISWVTQRAGQGLEWIGVIYPRSGNTYYNEKFRGKATLTADKSSSSAYMELRGLTAEDSAVYFCARENYGSVYWGQGTTLTVSS
VL: DIVMTQSQKFMSTSVGDRVSITCKASQNVGTAVAWYQQKPGQSPKLLIYSASNRYTGVPDRFTGSGSGTDFTLTISNMQSEDLADYFCQQFSSYPYTFGGGTKLEIK
B2: mAb ZV-2 (antibody, V domains shown)
VH: QVQLQESGAELMKPGASVKLSCKTSGYTFIGYWIEWLKQRPGHGLEWVGEIFPGSGRTKYNEKFKGRATFTADTSSNMAYMQLSSLTTEDSAIYYCARYYYGSYYALDYWGQGTSVTVSS
VL: DIVMTQSPSSLSVSAGEKVTLSCKSSQSLLHSGNQKNYLAWYQQKPGQAPKLLIYGASTRESGVPDRFTGSGSGTDFTLTISSVQAEDLAVYYCQNDHSYPLTFGAGTKLELK

What was measured:
[1] = target: MBP alone (negative control in BLI) (Escherichia coli K12, UniProt P0AEX9 = MBP); assay: BLI
[2] = target: ZDIII-WT as used in BLI (taken as the His6-MBP-ZDIII-WT fusion protein) (Zika virus H/PF/2013, UniProt A0A024B7W1); assay: BLI
Sequence of UniProt A0A024B7W1 (A0A024B7W1 whole entry, looked up, the tested form may be a part): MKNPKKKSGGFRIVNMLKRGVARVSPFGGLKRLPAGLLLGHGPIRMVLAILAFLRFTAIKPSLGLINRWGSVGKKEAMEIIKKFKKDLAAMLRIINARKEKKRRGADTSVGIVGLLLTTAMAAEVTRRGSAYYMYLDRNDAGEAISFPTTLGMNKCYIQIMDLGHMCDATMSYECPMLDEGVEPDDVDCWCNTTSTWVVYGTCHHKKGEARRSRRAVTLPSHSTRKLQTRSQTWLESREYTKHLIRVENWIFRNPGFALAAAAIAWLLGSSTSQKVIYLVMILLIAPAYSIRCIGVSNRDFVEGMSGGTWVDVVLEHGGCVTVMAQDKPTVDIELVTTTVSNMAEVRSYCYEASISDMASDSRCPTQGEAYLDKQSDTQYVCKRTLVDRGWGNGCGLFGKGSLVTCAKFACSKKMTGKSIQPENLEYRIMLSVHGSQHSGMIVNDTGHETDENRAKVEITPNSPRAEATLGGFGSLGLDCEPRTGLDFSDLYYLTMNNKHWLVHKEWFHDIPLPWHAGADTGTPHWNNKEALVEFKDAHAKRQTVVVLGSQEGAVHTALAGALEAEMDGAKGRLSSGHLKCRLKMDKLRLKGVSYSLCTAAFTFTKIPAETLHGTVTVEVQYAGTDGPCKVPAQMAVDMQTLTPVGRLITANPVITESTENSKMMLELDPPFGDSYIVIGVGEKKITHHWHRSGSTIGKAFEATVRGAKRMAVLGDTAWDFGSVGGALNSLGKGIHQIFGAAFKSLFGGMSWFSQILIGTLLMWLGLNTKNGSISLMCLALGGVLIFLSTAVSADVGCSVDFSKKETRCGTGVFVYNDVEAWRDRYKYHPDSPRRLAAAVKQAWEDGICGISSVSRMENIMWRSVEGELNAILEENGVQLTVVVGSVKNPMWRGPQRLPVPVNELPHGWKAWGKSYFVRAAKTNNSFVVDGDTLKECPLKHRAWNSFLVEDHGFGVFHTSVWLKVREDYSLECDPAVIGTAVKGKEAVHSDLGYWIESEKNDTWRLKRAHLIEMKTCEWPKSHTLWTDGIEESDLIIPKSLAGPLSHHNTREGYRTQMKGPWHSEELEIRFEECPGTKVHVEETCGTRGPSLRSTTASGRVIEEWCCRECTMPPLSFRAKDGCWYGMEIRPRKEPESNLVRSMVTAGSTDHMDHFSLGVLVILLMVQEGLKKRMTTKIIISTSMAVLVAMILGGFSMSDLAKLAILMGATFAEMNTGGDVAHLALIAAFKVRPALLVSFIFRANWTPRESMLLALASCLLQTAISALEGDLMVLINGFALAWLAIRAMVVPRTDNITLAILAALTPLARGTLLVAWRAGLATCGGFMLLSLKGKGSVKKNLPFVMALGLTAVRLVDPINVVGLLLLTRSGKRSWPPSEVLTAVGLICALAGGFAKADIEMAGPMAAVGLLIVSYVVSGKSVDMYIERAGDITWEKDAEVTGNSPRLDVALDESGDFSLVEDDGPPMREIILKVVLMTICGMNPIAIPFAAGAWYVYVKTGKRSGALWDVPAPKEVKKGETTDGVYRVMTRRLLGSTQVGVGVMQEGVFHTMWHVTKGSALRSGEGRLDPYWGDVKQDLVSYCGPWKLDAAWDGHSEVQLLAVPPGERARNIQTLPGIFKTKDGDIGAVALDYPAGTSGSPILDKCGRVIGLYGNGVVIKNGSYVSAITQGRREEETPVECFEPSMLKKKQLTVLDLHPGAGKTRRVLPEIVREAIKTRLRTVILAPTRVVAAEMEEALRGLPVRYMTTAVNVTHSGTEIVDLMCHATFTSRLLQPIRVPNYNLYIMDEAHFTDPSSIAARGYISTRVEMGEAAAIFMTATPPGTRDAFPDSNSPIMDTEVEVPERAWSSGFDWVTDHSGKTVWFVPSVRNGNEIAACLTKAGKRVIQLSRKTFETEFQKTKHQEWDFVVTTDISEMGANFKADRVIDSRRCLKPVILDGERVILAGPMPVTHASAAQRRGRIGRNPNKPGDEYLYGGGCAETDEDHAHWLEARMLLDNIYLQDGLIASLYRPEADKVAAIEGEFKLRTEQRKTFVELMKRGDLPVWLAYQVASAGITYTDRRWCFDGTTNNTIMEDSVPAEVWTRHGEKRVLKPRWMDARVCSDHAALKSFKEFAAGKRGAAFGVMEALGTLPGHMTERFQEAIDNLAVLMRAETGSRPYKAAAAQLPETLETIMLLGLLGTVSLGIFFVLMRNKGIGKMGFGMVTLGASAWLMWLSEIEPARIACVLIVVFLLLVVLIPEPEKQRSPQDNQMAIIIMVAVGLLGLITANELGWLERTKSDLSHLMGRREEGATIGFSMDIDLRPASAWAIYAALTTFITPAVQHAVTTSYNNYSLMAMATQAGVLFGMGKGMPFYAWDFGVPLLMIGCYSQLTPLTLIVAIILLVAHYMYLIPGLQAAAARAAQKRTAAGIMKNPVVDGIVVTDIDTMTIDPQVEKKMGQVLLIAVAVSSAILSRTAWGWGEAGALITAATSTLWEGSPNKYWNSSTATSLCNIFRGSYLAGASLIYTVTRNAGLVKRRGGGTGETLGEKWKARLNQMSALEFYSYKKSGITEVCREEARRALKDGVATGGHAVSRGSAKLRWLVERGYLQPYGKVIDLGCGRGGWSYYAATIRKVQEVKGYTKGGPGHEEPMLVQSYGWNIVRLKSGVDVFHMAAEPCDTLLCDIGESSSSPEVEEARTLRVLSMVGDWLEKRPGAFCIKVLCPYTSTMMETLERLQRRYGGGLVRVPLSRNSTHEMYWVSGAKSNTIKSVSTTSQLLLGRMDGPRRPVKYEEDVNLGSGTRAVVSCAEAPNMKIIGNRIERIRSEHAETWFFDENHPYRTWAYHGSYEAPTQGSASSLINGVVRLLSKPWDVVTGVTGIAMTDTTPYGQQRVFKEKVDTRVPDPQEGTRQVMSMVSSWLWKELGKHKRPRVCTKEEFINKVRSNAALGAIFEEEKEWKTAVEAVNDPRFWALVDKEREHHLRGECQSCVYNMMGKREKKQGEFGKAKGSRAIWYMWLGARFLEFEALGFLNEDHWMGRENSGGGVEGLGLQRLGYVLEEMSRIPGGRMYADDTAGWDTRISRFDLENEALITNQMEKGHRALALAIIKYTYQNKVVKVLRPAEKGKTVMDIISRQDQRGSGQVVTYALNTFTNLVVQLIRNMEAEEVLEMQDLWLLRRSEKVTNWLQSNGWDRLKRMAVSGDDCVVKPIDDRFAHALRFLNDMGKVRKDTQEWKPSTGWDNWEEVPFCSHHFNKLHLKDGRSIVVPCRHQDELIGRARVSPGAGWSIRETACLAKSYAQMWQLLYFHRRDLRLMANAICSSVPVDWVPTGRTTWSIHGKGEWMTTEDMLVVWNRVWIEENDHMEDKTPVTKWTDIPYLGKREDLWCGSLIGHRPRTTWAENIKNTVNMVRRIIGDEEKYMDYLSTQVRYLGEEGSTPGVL

[3] = target: ZDIII-WT, soluble purified protein with C-terminal SpyTag (Zika virus H/PF/2013, UniProt A0A024B7W1); assay: ELISA

| Binder | binding result [1] | Kd [2] | EC50 [3] |
| --- | --- | --- | --- |
| B1 | no binding | 0.043 ± 0.0011 µM | 0.014 µM |
| B2 | no binding | 0.0107 ± 9e-05 µM | – |
